From US20080027001A1, “NOGO RECEPTOR FUNCTIONAL MOTIFS, PEPTIDE MIMETICS, AND MUTATED FUNCTIONAL MOTIFS RELATED THERETO, AND METHODS OF USING THE SAME” (priority 2006, published 2008)

Biological target: human p75 neurotrophin receptor (p75NTR) expressed in CHO-K1 cells (human) (UniProt P08138)
Test: AP fusion protein on CHO-K1 cells expressing cell-surface human p75NTR, fluorescent AP substrate

Chain of human p75 neurotrophin receptor (p75NTR) expressed in CHO-K1 cells (human) (P08138 29-427): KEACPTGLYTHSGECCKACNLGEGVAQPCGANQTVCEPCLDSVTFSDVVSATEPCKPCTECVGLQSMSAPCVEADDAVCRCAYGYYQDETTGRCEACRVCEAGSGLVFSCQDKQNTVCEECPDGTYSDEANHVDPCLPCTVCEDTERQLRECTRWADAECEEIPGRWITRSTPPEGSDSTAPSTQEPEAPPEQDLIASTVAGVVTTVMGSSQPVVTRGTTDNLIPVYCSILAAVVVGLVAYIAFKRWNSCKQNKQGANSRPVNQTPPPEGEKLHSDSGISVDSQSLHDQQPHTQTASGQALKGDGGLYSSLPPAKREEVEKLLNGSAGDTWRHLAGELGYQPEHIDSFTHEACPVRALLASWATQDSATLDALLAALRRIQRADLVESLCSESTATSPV

fold bound against mock-transfected control cells: 5 fold
Substance: NgR-AP
